Source: US20210214440A1 (Janssen / Centocor, published 2021)
Substitutions are numbered along the chain they refer to.

Target: T1, human CD8 on human pan T cells (human, UniProt P01732 22-235; P10966 22-210)
T1 construct: Native CD8 on the CD4-negative population of human pan T cells
Assay: flow cytometry, 20 nM mAb on human pan T cells
Procedure: Secondary antibodies were A647-conjugated goat anti human IgG Fc antibody at 2 μg/mL, and A488-conjugated mouse anti-human CD4 at 1 μg/mL in staining buffer. Live cells were also gated based on OKT8 control mAb binding. Percent CD8 positive population was calculated by percentage of CD8-positive cell count/live cell count.

T1 sequence (P01732 22-235, chain 1 of 2): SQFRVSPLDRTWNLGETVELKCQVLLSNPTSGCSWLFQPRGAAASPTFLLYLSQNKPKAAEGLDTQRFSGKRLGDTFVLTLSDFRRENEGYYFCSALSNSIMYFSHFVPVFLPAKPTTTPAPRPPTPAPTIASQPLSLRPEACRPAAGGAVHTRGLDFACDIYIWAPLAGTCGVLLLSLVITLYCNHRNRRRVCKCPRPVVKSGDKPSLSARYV
T1 sequence (P10966 22-210, chain 2 of 2): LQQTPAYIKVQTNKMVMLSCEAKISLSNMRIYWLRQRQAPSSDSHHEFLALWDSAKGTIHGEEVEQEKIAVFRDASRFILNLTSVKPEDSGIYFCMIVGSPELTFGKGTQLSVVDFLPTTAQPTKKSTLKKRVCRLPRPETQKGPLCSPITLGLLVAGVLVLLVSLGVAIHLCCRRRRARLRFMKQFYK

B1: CD8B240 (antibody, human IgG1, kappa)
heavy: not shown
light: DIVMTQSPATLSVTPGDRVSLSCRASQSISDFLHWYQQKSHESPRLLIKYASQSISGIPSRFSGSGSGSDFTLTINSVEPEDVGVYYCQNGHSFPYTFGSGTKLEIKRTVAAPSVFIFPPSDEQLKSGTASVVCLLNNFYPREAKVQWKVDNALQSGNSQESVTEQDSKDSTYSLSSTLTLSKADYEKHKVYACEVTHQGLSSPVTKSFNRGEC
notes: full-length human IgG1, kappa
Cell Binding to Human PanT Signal/Background (of CD4 negative population): 1310

B2: CD8B191 (antibody, human IgG1, kappa)
heavy: not shown
light: B1 light with M4L
notes: full-length human IgG1, kappa
Cell Binding to Human PanT Signal/Background (of CD4 negative population): 2440

B3: CD8B364 (antibody, human IgG1, kappa, V domains shown)
VH: QVQLQQPGAELVKPGASVKLSCKASGYTFTSYWMHWVNRRPGQGLEWIGEINPSNGDSYYNEKFKRKATLTVDISSSTAYMQLSSLTSEDSAVYYCTRSMYYDGRAGAYWGQGTTVTVSS
VL: DIVLTQSPASLSVATGEKVTIRCITSTDIDDDMNWYQQKPGEPPKLLISEGNTLRPGVPSRFSSSGYGTDFVFTIENTLSEDVADYYCLQSDNMPLTFGAGTKLELKR
notes: full-length human IgG1, kappa
Cell Binding to Human PanT Signal/Background (of CD4 negative population): 1560

B4: CD8B200 (antibody, human IgG1, kappa, V domains shown)
VH: EVQLQQSGAELVKPGASVKLSCKASGYTFTNYWIHWVKQRPGQGLEWIGNIDPSDSETHYNQKFKDKATLTVDKSSSTAYMQLISLTSEDSAVYYCASGLTGTGYYWGQGTTLTVSS
VL: DIQMTQTTSSLSASLGDRVTITCRASQDISPYLNWYQQKPEGTIKLLIYYTSKLHSGVPSRFSGSGSGTDYSLTISNLEQEDIATYFCQQDNTLPYTFGSGTKLELKR
notes: full-length human IgG1, kappa
Cell Binding to Human PanT Signal/Background (of CD4 negative population): 1990

B5: CD8B270 (antibody, human IgG1, kappa, V domains shown)
VH: B4 VH with E1Q, S7P, K19M, I34M, I84S
VL: B4 VL with S30R, Y50F
notes: full-length human IgG1, kappa
Cell Binding to Human PanT Signal/Background (of CD4 negative population): 2500

B6: CD8B213 (antibody, human IgG1, kappa, V domains shown)
VH: EVQLQQSGPELVKPGDSMKMSCKASGYIFTDYYMDWVKQSHGKSLEWIGYIYPNNGITSYNQKFKGRATLTIDKSSSTAYMELHSLTSEDSAVYYCARSIYYDHGGGFPYWGQGTSVTVSS
VL: DIVLTQSQKFMSTSVGDRVSVTCKASQNVDKYVAWYQQKPGQSPKALIYSASYRYSGVPDRFTGSGSGTDFTLTISNVQSEDLAEYFCQQYNTYPSFGSGTKLEMKR
notes: full-length human IgG1, kappa
Cell Binding to Human PanT Signal/Background (of CD4 negative population): 827

B7: CD8B361 (antibody, human IgG1, kappa, V domains shown)
VH: EVQLQQSGPELVKPGNSVKMSCKASGYTFTDYYMDWVKQSHGTSLEWIGYIYPNNGDTRYNQKFKDKATLTVDKSSSTAYMELHSLTSEDSAVFYCARSIYYDHGGGFPYWGQGTLVTVSA
VL: B6 VL with L4M, D30G, K31T, S76N, F87L, T93S, S96T, S99G, K102R, M105I
notes: full-length human IgG1, kappa
Cell Binding to Human PanT Signal/Background (of CD4 negative population): 1050

B8: CD8B246 (antibody, human IgG1, kappa, V domains shown)
VH: QVQLKESGPGILKPSQTLSLTCSFSGFSLSTSGMNVGWIRQPSGKGLEWLAHIWWDDDKYYNPSLKSQLTISKDTSRNQVFLKITSVDTADTATYYCARRGNYGNYEFAYWGQGTTLTVSS
VL: B4 VL with T22S, S30R, P31N, E41D, I44V, Y50H, K53R, D91G, Y96W, S100A
notes: full-length human IgG1, kappa
Cell Binding to Human PanT Signal/Background (of CD4 negative population): 1110

B9: CD8B304 (antibody, human IgG1, kappa, V domains shown)
VH: B8 VH with Q3T, L117V
VL: DIQMTQTTSSLSASLGDRVTISCRASQDIRNYLNWYQQKPDGTVKLLIYHTSRLHSGVPSRFSGSGSGTDYSLTISNLDQEDIATYFCQQGNTLPWTFGAGTKLELKR
notes: full-length human IgG1, kappa
Cell Binding to Human PanT Signal/Background (of CD4 negative population): 923

B10: CD8B268 (antibody, human IgG1, kappa, V domains shown)
VH: QVQLQQSGAELVKPGASVKLSCKASGYTFTVYTIHWVKQRSGQGLEWIGWFYPGSGNIKYNEKFKDKATLTADKSSHTVYMELSRLTSEDSAVYFCARHEDNHYYDGNSWFAYWGQGTLVTVSA
VL: DIQMTQSPASLSASVGQTVTITCRASGNIHNYLAWFQQKQGKSPQLLVYNAKTLADGVPSRFSGSGSGTQYSLKINSLQTEDFGNYYCQHFWNTPYTFGGGTKLEIKR
notes: full-length human IgG1, kappa
Cell Binding to Human PanT Signal/Background (of CD4 negative population): 1170

B11: CD8B273 (antibody, human IgG1, kappa, V domains shown)
VH: B10 VH with V31E, S55T, N57S, R85K
VL: B10 VL with Q17E, T80A, N85S, N93S, G100S
notes: full-length human IgG1, kappa
Cell Binding to Human PanT Signal/Background (of CD4 negative population): 938

B12: CD8B271 (antibody, human IgG1, kappa, V domains shown)
VH: DVQLQESGPGLVAPSQSLSITCTVSGFSLSIYSIHWVRQPPGKGLEWLGMIWGGGDTDYNSALKSRLSISKDNSESQVFLKMNSLQTDDTAMYYCARNPHYYGGTYEYFDVWGTGTTVTVSS
VL: DIQMTQTTSSLSASLGDRVTISCSASQGISNYLNWYQQKPDGTVKLLIYDTSILYSGVPSRFSGSGSGTDYSLTISNLEPEDVATYYCQQYSNLPYTFGSGTKLEIKR
notes: full-length human IgG1, kappa
Cell Binding to Human PanT Signal/Background (of CD4 negative population): 911

B13: CD8B303 (antibody, human IgG1, kappa, V domains shown)
VH: QVQLKESGPGLVAPSQSLSITCTVSGFSLSIYSIHWVRQPPGKGLEWLGMIWGGGSTDYNSTLNSRLSIIKDNSKSQVFLKMNSLQTDDTAMYYCARNPHHYGGSTGAMDYWGQGTTVTVSS
VL: DVQMIQSPSSLSASLGGTVTITCKASQDIKKYMAWYQHKPGKGPRLLIHYTSSLQPGIPSRFSGSGSGRDYYFSISNLEPEDIATYFCLQYDNLFTFGSGTKLELKR
notes: full-length human IgG1, kappa
Cell Binding to Human PanT Signal/Background (of CD4 negative population): 1180

B14: CD8B312 (antibody, human IgG1, kappa, V domains shown)
VH: QVQLQQPGADLVKPGASVKLSCKASGYTFTSFWMHWVKQRPGQGLEWIGNVDPSDSQTHYNQKFKDKATLTVDKSSNTAYMQLSSLTSEDSAVYYCARSTYYRYDGPFTYWGQGTTVTVSS
VL: DIVLTQSPATLSVTPGDSVSLSCRASQSINNNLHWYQQKSHESPRLLIKYTSQSISGIPSRFSGSGSGPDFTLSINSVETEDFGMYFCQQSNSWPLTFGGGTKLEIKR
notes: full-length human IgG1, kappa
Cell Binding to Human PanT Signal/Background (of CD4 negative population): 1090

B15: CD8B347 (antibody, human IgG1, kappa)
heavy: not shown
light: DIQMTQSPASLSASVGETVTITCRASGNIHNYLAWYQQKQGKSPQLLVFNAETLADGVPSRFSGSGSGTQFSLKINSLQPEDFGTYYCQHFWNNPLTLGAGTKLELKRTVAAPSVFIFPPSDEQLKSGTASVVCLLNNFYPREAKVQWKVDNALQSGNSQESVTEQDSKDSTYSLSSTLTLSKADYEKHKVYACEVTHQGLSSPVTKSFNRGEC
notes: full-length human IgG1, kappa
Cell Binding to Human PanT Signal/Background (of CD4 negative population): 1200

B16: CD8B350 (antibody, human IgG1, kappa, V domains shown)
VH: EVQLQQSGAELAKPGTSVKMSCKASGYTFAAYWINWLKQRPGQGLEWIGSINPSNGYTEYSQKFKDKAILTADKSSSTAYMQLSSLTSEDSAVYYCSRSGLYYTNHLAWCPYWGQGTTVTVSS
VL: B10 VL with Q3V, Q17E, F36Y, L46V, K52E, G57S, Y71F, T80P, T94S, Y96L
notes: full-length human IgG1, kappa
Cell Binding to Human PanT Signal/Background (of CD4 negative population): 537

B17: CD8B356 (antibody, human IgG1, kappa, V domains shown)
VH: DVQLQESGPGLVKPSQSLSLTCSVTGYSITSGYYWNWIRQFPGNKLEWMGYISYDGSNNYNPSLKNRISITRDTSKNQFFLKLNSVTTEDTATYYCVRNHGDAMDYWGQGTSVTVSS
VL: DIVLTQSQKFMSTTVGDRVSITCKASQNVGTAVAWYQQKPGQSPKLLIYSASYRYTGVPDRFTGSGSGTHFTLTISNMQSEDLADYFCQQYSSYLTFGSGTKLEIKR
notes: full-length human IgG1, kappa
Cell Binding to Human PanT Signal/Background (of CD4 negative population): 777
